According to the nanobody polyreactivity screen of Harvey et al. (2022):

Assay: yeast display, Sf9 membrane polyspecificity reagent, FACS + sequencing; frameworks hold sequencing errors
Procedure, shortened: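 A nanobody's polyreactivity label depends on the gate it was sorted from. Yeast display cells were stained with 10% biotinylated, detergent-solubilized Sf9 membrane reagent for 1 hour at 4 °C, enriched on streptavidin microbeads and sorted by FACS. The low and high (top ~1%) gates were set on anti-HA fluorescence for expression and streptavidin fluorescence for reagent binding.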

| Sequence | polyreactivity (PSR sort gate) |
| --- | --- |
| QVQLVESGGGLVQAVGSLRLSCAASVFIFPYYDMGWYRQAPGKEREFVAAITKSGGRTYYADSVKGRFTISRDNAKNTVYLHMNSLKPEDTAVYYCNADDPDYLVSYRYDYWGLGTQVTVSS | low polyreactivity |
| QVQLVESGGGLVQAVGSLRLSCASSGYTFDYYTMGWYRQAPGKERELVARITASGGSTYYADSVKGRFTISRDNAKNTVYLQMNSLKPEDTAVYYCAKAWYRYSRFDYWGQGTQVTVSS | high polyreactivity |
| QVQLVESGGGLVQAVGTLRLSCAASGSIFGYNAMGWYRHAPAKEREFVAAIRWSSGSTYYADSVKGRFTISRDNAMNTVFLQMNSLKPEDTAVNYCATRQTYLYWGQGTQVTVSS | high polyreactivity |
| QVQLVESGGGLVQAVGTLRLTCAASGITFNVNAMGWYRQEPGKERELVARITTSGGSTSYADSVKGRFTISRDNAYNTVYLQMNSLKPEDTAVYYCAADRARYFSEYDYWGQGTQVTVSS | low polyreactivity |
| QVQLVESGGGLVQAVVSLRLSCADTGFTFRRYAMGWDRQAPGKERELVAVITTAGSTNYADSVKGRFTISRDNAKNTVYLKMNSLKPEDTAVYYCATDNGTRKRRYDYWGQGTQVTVSS | low polyreactivity |
| QVQLVESGGGLVQEGCSLRLICAASGSIFGYYAMGWYRQAPGKERELVAAISTAGSTNYADSVKGRFTISRDNAKNTVYLQMNSLKPEDTAVYYCAKKSSWYYPERFDYWGQGTQVTVSS | low polyreactivity |
| QVQLVESGGGLVQEGDSLRLSCAASGIIFLWYTLGLYRPAPGKERELVATISWGGGSTYADSVKGRFTISRDNAKNTVYLQMNSLKPEDTAVYYCAADNRYFRGQAYDYWGQGTQVTVSS | low polyreactivity |
| QVQLVESGGGLVQEGGSLHLICAASGRIFGKYPMGWYRQAPGKEREFVAAIRSSDGNTYYADSVKGRFTISRDNAKNTVYLQMNSLKPDDTAVYYCNAGRVTRRDTFDYWGQGTQVTVSS | high polyreactivity |
| QVQLVESGGGLVQEGGSLRFSCAASGFTFDHYAMGWNRQAPGKERELVAVITKSGDSTYYADSVKGRFTISRDNAKNTVYLQMNSQKPEDPAVYYCNARRDYDMDWGQGTQVTVSS | high polyreactivity |
| QVQLVESGGGLVQEGGSLRISCAASGFSYENNAMGRYRQAPGKERERVAGITSGGGSTYYADSVKGRFTISRDNAKNTVYLQMNSLKPEDTAVYYCNKMYTRVGFTFEYWGQGTQVTVSS | low polyreactivity |
| QVQLVESGGGLVQEGGSLRLICAASGRIFGDYGMGWYRQAPGKERELVAAITDRGGTTYYADSVKGRFTISRDNAKNTVYLQMNSLNPEDTAVYYCNARQSDIFDYDYWGQGTQVTVSS | low polyreactivity |
| QVQLVESGGGLVQEGGSLRLICAASGRTLNSYDMGWYRQEPGKERELVAAISWSGTNTYYSDSVKGRFTISRDNAKNTVYLQMNCLKPEDTAVYYCNAVTKATRYEYWGQGTQVTVSS | high polyreactivity |
| QVQLVESGGGLVQEGGSLRLICAASGSIFWLYAMGWYRQAPGKERELVAAIDSGDSTKYADSVKGRFTISRDNAKYTVYLQMNSLKPEDTAVYYCNASRRYHVRAPYDYWGQGTQVTVSS | low polyreactivity |
| QVQLVESGGGLVQEGGSLRLICEASGFIFYNYAMGWYRQAPGKERELVAAISSSGGRTYYADSVKGRFTISRDNAKNTVYLQMNRLKREDTAVYYCNARVNYKGYDYWGQGTQVTVSS | high polyreactivity |
| QVQLVESGGGLVQEGGSLRLSCAASGFIFKHYAMGWYRQAPGKEMELVAAISGGGSTNYADSVKGRFTISRDNAKNTVYLQMNSLKPEDSAVYYCAARSRSLGYGYWGQGTHVTVSS | low polyreactivity |
| QVQLVESGGGLVQEGGSLRLSCAASGFISGFYGMGWYRQAPRKEREFVAAIEFIDGDTYYADSVKGRFTISRDNAKNTVYLQMNSLKPEDTAVYYCAADGSFWQFDYWGQGTQVTVSS | low polyreactivity |
| QVQLVESGGGLVQEGGSLRLSCAASGFTFAQYALGWYRQAPGNERELVAAISRRGGRTYYADSVTGRFTISRDIAKNTVYLQMTSLKPEDSAVSYCAADGGYQDDYDYWGQGTQVTVSS | high polyreactivity |
| QVQLVESGGGLVQEGGSLRLSCAASGFTFNNYAMGWYRQAPGKERELVAAISSVGRTYYAYSVKGRFTISRDNAKNTVYLQMISLKPEDTAVYYCNRRWYTHWGQGTQVTVSS | high polyreactivity |
| QVQLVESGGGLVQEGGSLRLSCAASGIIFLDNAMGWYRQAPGKERELVAAITTGGITYYADSVKGRFTISRDNAKNTVYLQMNSLKPEDTAVYYCATDPVNSGYQRYYYWGQGTQVTVSS | low polyreactivity |
| QVQLVESGGGLVQEGGSLRLSCAASGLIFRYYGMGWYRQAPGKERELVAAIRWSAGSTYYADSVKGRFTNSRDYAKITVYFQMNSLKPEDTAVYYCAVAIGYVYKPYYYWGQGTQVTVSS | high polyreactivity |
| QVQLVESGGGLVQEGGSLRLSCAASGLIFSEYAMGWSRQAPGKERELVAAIRSDGGSTYYADSVKGRFTISRDNAKNSVYLQMNSLKPEDTAVYYCNAPYRRSAKFRRYGYDYLGQGTQVTVSS | high polyreactivity |

| Sequence | polyreactivity (PSR sort gate) |
| --- | --- |
| QVQLVESGGGLVQEGGSLRLSCAASGLTFTGNAMGGYRQAPGKEREFVAAIRWSAGSTYYADSVKGRFTISRDNAKNTVYLQMNSLKPEDTAVYYCYAALIVSGHNPNDYWGQGTQVTGSS | low polyreactivity |
| QVQLVESGGGLVQEGGSLRLSCAASGRIFKYNAMGWYRQAPGKERELVAAISSSGGSTYYADSVKGRFTISRDNAKNTVYLHMNSLKPEDTAVYYCAARYNSRVYRYDYWGQGTQVTVSS | high polyreactivity |
| QVQLVESGGGLVQEGGSLRLSCAASGRIFSYNTVMGWYIQAPGKERELVAAITFSSASTYYADSVKGRFTISRDNAKNTVYLQMNSLKPEDTAVYYCAAAIRSQSSKYYYWGQGTQVTVSS | low polyreactivity |
| QVQLVESGGGLVQEGGSLRLSCAASGRTFAVYAMGWYRQAPGKERELVAAITYGGGRTYYADSVKGRFTISRDNAKNTVYLQMNSLKPEDTAVYYCAADYYGTDYDYWGQGTQVTVSS | low polyreactivity |
| QVQLVESGGGLVQEGGSLRLSCAASGRTFTTYAMGWYRQAPGKERELVAAISDTGGITYYADSVKGRFTISRDTAKNTVYIQMNSLKPEDTAVYYCNAESYGGDYDYWGQGTQVTVSS | low polyreactivity |
| QVQLVESGGGLVQEGGSLRLSCAASGRTIIQNGMGWYRQAPGKERELVAAISYRGGTTSYADSVKGRFTISRDNAKNTVYLQMNSLKPEDTAVYSCAAVGHTIYATPTYYYWGQGTQVTVSS | high polyreactivity |
| QVQLVESGGGLVQEGGSLRLSCAASGRTIVSNAMGWYRQAPGKERELVAAIRYGGGRTYYADSVKGRFTISRDNAKNTVYLQMNSLKPEDTAVYYCAKRSVGGTGYYWGQGTQVTVSS | high polyreactivity |
| QVQLVESGGGLVQEGGSLRLSCAASGRTLYRNAMGWYRQAPGKERELVAAISRSGGRTSYADSVKGRFTISRDNANNTVYLQMNSLIPEDTAVYYCNDVASHEFDYWGEGTQVTVSS | high polyreactivity |
| QVQLVESGGGLVQEGGSLRLSCAASGSIFGGYALGWYRQAPGKERELVAAITWRGGRTYYADSVKGRFTISRDNAKNTVYLQMNSMKPEDTAVYYCNAVGSYRLYDYWGQGTQVTVSS | high polyreactivity |
| QVQLVESGGGLVQEGGSLRLSCAASGSIFYNAMGWTRQAPGKERELVAAISSRGASTYYADSVKGRFTISRDNAKNTVYLLMNSLKPEDTAVYYCAKDNRYPYPSGLDYWGQGTQVTVSS | high polyreactivity |
| QVQLVESGGGLVQEGGSLRLSCAASGSILYYYAMGWYRQAPGKERELVATITRRGGSTYYADSVKGRFTISRDNAKNTVYLQMNSLKPEDTAVYFCAARSRYGELYYWGQGTQVTVSS | high polyreactivity |
| QVQLVESGGGLVQEGGSLRLSCAASGSTFAANTMGWYRQAPGKERELVAAITVRGGSTYYADSVKGRFSMSRDNAKNTVYLQTNSLKPEDTAVYDCAAERPPYGYLVVGYVSTQYYYWGQGTQVTVSS | low polyreactivity |
| QVQLVESGGGLVQEGGSLRLSCAASGSTFTPYAMGWYRQAPGKERELVAGITGNGGSTRYADSVKGRFTISRDNEKNTVYLQMKSLKTEDSAVYYCAARWTRQRYRTSYYAWGQGTQVTVSS | high polyreactivity |
| QVQLVESGGGLVQEGGSLRLSCAASGSTFTYNDMGRYRQAPGKERELVAAITDSDGITYYADSVKGRFTISRDNAKNTVYLQMHSLKPEDTAVSYCAAYYYGSVAQDREYWGQGTQVTVSS | high polyreactivity |
| QVQLVESGGGLVQEGGSLRLSCAASGSTFYSNAMGWYRQARGKEREFLAAISWSGGSTYYADSVKGRFTISRDNAKNTVYFQMNSLKPEDTAVYYCAKKPYYYAFCGYGYWGQGSQVTVSS | high polyreactivity |
| QVQLVESGGGLVQEGGSLRLSCAASGYIFWSNTMGWYRQAPGKERELVAAISQSTASTYYADSVKGRFTISRDNAKNTVYLQMNSLKPDDTAVYYCAADGWSRSWGYWVHYGYWGQGTQVTVSS | low polyreactivity |
| QVQLVESGGGLVQEGGSLRLSCAASVRIFSDYAMGWYIQAPGKERELVATITSGDSTNYADSVKGRFTISRDNAKNTVYLQMNSLKPEDNAVYYFNADRFADYDYWGQGTQVTVSS | low polyreactivity |
| QVQLVESGGGLVQEGGSLRLSCAAYGFIFGDNALGWYRQAPGKERELVAGSTVSDGSTYYADSVKGRFTISRDNAKNTVYLLMNSLKPEDTAVYYCNAAGRYKPGAPYDYWGQGNQVTVSS | low polyreactivity |
| QVQLVESGGGLVQEGGSLRLSCACSARTITGYAIGWYRQAPGQEWEVVAAIYRRGASTYYADSVKGRFTISRDNAKNTVYLEMNSLKPEDTAVDYCAAYLYGLWSVGRDYWGQGTQVTVSS | high polyreactivity |
| QVQLVESGGGLVQEGGSLRLSCADSGRIFSTNAMGWSRQAPGKERELVAAISWSTGSTYYADSVKGRFTISRDNAKNTVYLQMNSLKPEDTAVYYCAASYTRTYWAYSYGYWGQGTQVTVSS | high polyreactivity |
